Measurements taken from PMC3341379.

Biological target: Clathrin triskelion with attached Gd-DTPA-ITC, as assembled into clathrin cages (rat (endogenous in rat liver and brain)) (UniProt P11442)
Experiment: negative-stain transmission electron microscopy; cages assembled from modified triskelia mixed with AP-2 proteins 3:1 (v/v), dialysed against 50 mM MES Na pH 6.5, 100 mM NaCl, 2 mM DTT at 4°C; cages pelleted at 60,000 rpm and resuspended in 20 mM MES Na pH 6.2, 2 mM DTT; 0.05 mg/ml on carbon-coated grids, 1% uranyl acetate

stoichiometry N (triskelia per cage): 36
Substance: Clathrin triskelion with attached Gd-DTPA-ITC, as assembled into clathrin cages (from UniProt P11442 1-1675; P08081 1-248) (complex)
